Measured values reported in patent US20250092154A1 (UCI THERAPEUTICS, published 2025).

Tests used:
MSLN mature form-his [1] = molecular target: T1, MSLN mature form-his (human, UniProt Q13421 296-598, biotinylated (site not stated) in the ELISA of Example 2; detected with SA-APC in the yeast single-clone FACS); assay: Direct-binding ELISA: scFv coated on the plate, biotinylated MSLN mature form-his titrated, streptavidin-HRP, A450; the half-maximal value is headed 'IC50 (M)' in the drawn table, row 'Mature MSLN'
T1 construct: also called mesothelin mature form-his antigen; biotinylated MSLN-his; not shown: His tag
T1 sequence (Q13421 other isoform, or with tags, fused parts or gaps limits assumed): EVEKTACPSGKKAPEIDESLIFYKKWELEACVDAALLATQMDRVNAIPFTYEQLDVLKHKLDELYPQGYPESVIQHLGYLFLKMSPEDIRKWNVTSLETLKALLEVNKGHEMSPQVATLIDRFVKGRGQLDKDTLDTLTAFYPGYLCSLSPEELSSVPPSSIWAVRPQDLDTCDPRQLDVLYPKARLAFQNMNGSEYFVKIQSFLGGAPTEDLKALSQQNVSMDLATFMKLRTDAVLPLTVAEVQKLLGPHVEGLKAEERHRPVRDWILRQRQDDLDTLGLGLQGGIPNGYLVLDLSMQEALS
Description: (§1) 100 ng of the scFv protein purified in Example 1 was added to each well of a plate and refrigerated for 15 hours, thereby coating the plate with the protein. After incubation, each well was blocked with 200 μL of PBS (3% BSA) for 1 hour at room temperature. Biotinylated MSLN-his protein was serially diluted 1/5 from 10⁻⁶ M and then bound to the anti-MSLN scFv, coated on the ELISA plate, for 1 hour at room temperature. Each well was washed three times with PBST (0.05% tween 20) wash buffer, and then treated with HRP-conjugated streptavidin (Abcam) (diluted 40,000:1) for detection of biotinylated […] and incubated at room temperature for 1 hour. Each well was washed three times with PBST (0.05% tween20) wash buffer, and then treated with TMB and incubated at room temperature for 20 minutes. After treatment with 2M H₂SO₄, the absorbance at 450 nm was measured.

MSLN mature form-his [2] = molecular target: T1, MSLN mature form-his; assay: Direct-binding ELISA: scFv coated on the plate, biotinylated MSLN mature form-his titrated (M), streptavidin-HRP, A450
Description: as §1

[3] = molecular target: T2, biotinylated mesothelin of SEQ ID NO: 1 (human, UniProt Q13421 296-598, biotinylated (site not stated)); assay: FACS of 293T cells transduced with the #19-1 CAR, biotinylated mature mesothelin plus PE-streptavidin (B4-A vs SSC-A)
T2 construct: also called biotinylated mature form of the mesothelin antigen
Description: The generated cells were cultured for 2 days. […] Then, biotin was fluorescently labeled using PE-conjugated streptavidin protein and FACS analysis was performed.

MSLN (ACRO) = molecular target: T3, MSLN (ACRO) (human, UniProt Q13421, PE-conjugated (site not given)); assay: FACS of PBNK cells transduced with the #19-1 CAR, stained with PE-conjugated MSLN antigen 'MSLN (ACRO)' (B4-A vs SSC-A); also printed as 26%; Mock (empty vector) cells 0.24
T3 construct: soluble antigen, PE-conjugated; also called PE-conjugated MSLN antigen
T3 sequence (Q13421 other isoform, or with tags, fused parts or gaps limits assumed): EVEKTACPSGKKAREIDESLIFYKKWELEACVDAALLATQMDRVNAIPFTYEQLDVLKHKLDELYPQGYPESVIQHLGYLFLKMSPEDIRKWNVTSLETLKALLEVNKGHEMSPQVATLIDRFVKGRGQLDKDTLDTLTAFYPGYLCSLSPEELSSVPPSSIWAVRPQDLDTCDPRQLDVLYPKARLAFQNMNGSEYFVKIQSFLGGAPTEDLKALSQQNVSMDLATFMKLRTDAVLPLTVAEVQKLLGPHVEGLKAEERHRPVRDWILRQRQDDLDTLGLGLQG
Text: A mesothelin-specific chimeric antigen receptor construct virus was produced in the same manner as in Example 8 above, and then natural killer cells were used as immune 5 effector cells to be genetically engineered to express the chimeric antigen receptor. As such natural killer cells, PBMC (Human PB MNC) cells were purchased from StemCell, cultured for 10 days, and used after differentiation into PBNK cells. PBMC and PBNK cells, as well as lentivirus-transduced PBNK cells described below, were all cultured in NK MACS medium containing 100 µg/mL of streptomycin, 100 units/mL of penicillin, 10 ng/mL of rhIL-15, and 500 IU of rhIL-2. Culture of all cells was performed in a 5% CO₂ (95% air) environment at 37° C. For expression of the mesothelin-specific CAR, 5×10⁵ PBNK cells and the produced antigen receptor construct virus with an MOI of 2 were added to a 24-well plate, and then for induction of transduction, PGE2 (prostaglandin E2) and LentiBOOST (lentiviral gene transfer inducer) were used, thereby generating NK cells expressing the mesothelin-specific CAR. […]

[4] = molecular target: T4, recombinant human mature MSLN (SEQ ID NO: 1) (human, UniProt Q13421 296-598); assay: SPR, mature MSLN immobilized on CM5 chip, #19-1 scFv-Fc injected in two-fold dilutions, 1:1 depletion corrected binding model
T4 construct: Immobilized by amide coupling on a CM5 chip for SPR; also called mesothelin; recombinant human mesothelin protein antigen
Description: The binding affinity of the humanized antibody #19-1 purified in Example 6 to mesothelin was evaluated by surface plasmon resonance (SPR) method. First, recombinant human mature MSLN (SEQ ID NO: 1) was immobilized by an amide bond on the surface of a carboxymethyldextran (CM5) chip at densities of about 560 RU and 520 RU. Next, two-fold serial dilutions of humanized antibody #19-1 were injected at a constant flow rate. The association and dissociation rates of the protein complex (complex of humanized antibody #19-1 and mature MSLN) were monitored for 180 and 540 seconds, respectively. Referencing was performed on a blank flow cell. Finally, the binding affinity of humanized antibody #19-1 to mesothelin was determined using the 1:1 depletion corrected binding model.

B1: mesothelin-specific scFv #19 (purified from E. coli) (scFv)
scFv: DIVITQSPAIMSASPGEKVTMTCSASSSVSYMHWYQQKSGTSPKRWIYDTSKLASGVPARFSGSGSGTSYSLTISSMEAEDAATYYCQQWSSNPLTFGAGTKLEIKRGGGGSGGGGSGGGGSQVQLQQSGPELVKPGASVKISCKASGYSFTDYNMNWVKQSNGKSLEWIGVINPNYGTTSYNQKFKGKATITADTSSNTAYLQLSSLTSEDSAVYYCAKGDYDGAGFAYWGQGTLVTVSA
notes: also called mouse scFv #19; anti-MSLN scFv; not shown: His tag (Ni-NTA purification, anti-HISx6 detection) and any other pmopac12 vector tag
MSLN mature form-his [1]
  IC50: 2.43 nM
MSLN mature form-his [2]
  EC50 (read off the curve): ~3 nM

B2: mesothelin-specific CAR comprising humanized scFv #19-1, on cells (293T cells; PBNK cells) (receptor)
chain: EIVLTQSPATLSLSPGERATLSCSASSSVSYMHWYQQKPGQAPRLLIYDTSKLASGIPARFSGSGSGTDFTLTISSLEPEDFAVYYCQQWSSNPLTFGQGTKLEIKRGGGGSGGGGSGGGGSQVQLVQSGAEVKKPGASVKVSCKASGYTFTDYNMNWVRQAPGQGLEWMGVINPNYGTTSYNQKFKGRVTMTRDTSTSTVYMELSSLRSEDTAVYYCARGDYDGAGFAYWGQGTLVTVSSTTTPAPRPPTPAPTIASQPLSLRPEACRPAAGGAVHTRGLDFACDIYIWAPLAGTCGVLLLSLVITLYCKRGRKKLLYIFKQPFMRPVQTTQEEDGCSCRFPEEEEGGCELRVKFSRSADAPAYKQGQNQLYNELNLGRREEYDVLDKRRGRDPEMGGKPRRKNPQEGLYNELQKDKMAEAYSEIGMKGERRRGKGHDGLYQGLSTATKDTYDALHMQALPPR
notes: also called #19-1 CAR; MSLN-CAR
[3]
  % Parent in gate P4 (cells binding 'Mature MSLN'): 54.8%
MSLN (ACRO)
  % Parent in gate P24: 25.6%

B3: mesothelin-specific scFv #45 (purified from E. coli) (scFv)
scFv: DIVLTQSPAIMSTSPGEKVTMTCTASSSVSYMHWYQQKSGTSPKRWIYDTSKLASGVPARFSGSGSGTSYSLTISRMEAEDAATYYCQQWSSYPLTFGAGTKLEMKRGGGGSGGGGSGGGGSQVQLQQPGAELVKPGASVKLSCKASGYTFTSYWMHWVKQRPGQGLEWIGMIHPNSGGTNYNEKFKSKATLTVDKSSSTAYMQLSSLTSEDSAVYYCARYYYGNYVWYFDVWGTGTTVTVSA
notes: also called anti-MSLN scFv; not shown: His tag (Ni-NTA purification, anti-HISx6 detection) and any other pmopac12 vector tag
MSLN mature form-his [1]
  IC50: 9.43 nM
MSLN mature form-his [2]
  EC50 (read off the curve): ~8 nM

B4: humanized antibody #19-1 (#19-1 scFv-Fc) (Fc fusion)
scFv: EIVLTQSPATLSLSPGERATLSCSASSSVSYMHWYQQKPGQAPRLLIYDTSKLASGIPARFSGSGSGTDFTLTISSLEPEDFAVYYCQQWSSNPLTFGQGTKLEIKRGGGGSGGGGSGGGGSQVQLVQSGAEVKKPGASVKVSCKASGYTFTDYNMNWVRQAPGQGLEWMGVINPNYGTTSYNQKFKGRVTMTRDTSTSTVYMELSSLRSEDTAVYYCARGDYDGAGFAYWGQGTLVTVSS
notes: Expressed in ExpiCHO as #19-1 scFv-Fc and purified by protein A and SEC; also called humanized scFv #19-1; scFv antibody #19-1; not shown: Human IgG-Fc tag fused C-terminal to the scFv, and any hinge or linker to it
[4]
  Kd: 80.8 nM
